Among the targets are HLA-A*02:01; HLA-A*02:02; HLA-A*02:03; HLA-A*02:06; HLA-A*03:01; HLA-A*11:01; HLA-A*31:01; HLA-A*33:01; HLA-A*68:01; HLA-A*68:02; HLA-B*07:02; HLA-B*35:01; HLA-B*51:01; HLA-B*53:01; HLA-B*54:01.
What all share (assay): IEDB peptide-MHC binding, purified MHC/competitive/radioactivity; filed as Kd, often an IC50 or EC50 that approximates it; ≥ and ≤ were set here for values at or beyond the usual limits of such assays
Another assay deals with HLA-B*08:01. The note with it: source organism: Hepatitis C virus (isolate 1).
The next assay deals with HLA-B*18:01. The note with it: source organism: Hepatitis C virus (isolate 1).
Another assay has as its target HLA-B*40:01. As to conditions: source organism: Hepatitis C virus (isolate 1).
The target of the next assay is HLA-B*40:02. The note with it: source organism: Hepatitis C virus (isolate 1).
Another assay addresses HLA-B*44:02. As to conditions: source organism: Hepatitis C virus (isolate 1).
Another assay addresses HLA-B*44:03. The note with it: source organism: Hepatitis C virus (isolate 1).
The mark [1] stands for this setting: source organism: Vaccinia virus WR.
[2] abbreviates: source organism: SARS coronavirus Tor2.
Where [3] appears, read: source organism: Hepatitis C virus (isolate 1).
Setting [4] is: source organism: Triticum aestivum.
Setting [5] is: source organism: Mammarenavirus guanaritoense.

One may read the Kd as the concentration at which binding is half-saturated. Turning to IPYLRNYMVI, the Kd with HLA-A*02:01 (setting [1]) is at least 69400 nM; with HLA-A*02:02 (setting [1]) it was at least 70000 nM; with HLA-A*02:03 (setting [1]), at least 70400 nM; in the assay with HLA-A*02:06 (setting [1]), at least 69800 nM; with HLA-A*03:01 (setting [1]), 158 nM; with HLA-A*11:01 (setting [1]) it was 1020 nM. The Kd with HLA-A*31:01 (setting [1]) was at least 37000 nM; with HLA-A*33:01 (setting [1]), 15500 nM; with HLA-A*68:01 (setting [1]) it was at least 21400 nM; with HLA-A*68:02 (setting [1]) it was 15500 nM; with HLA-B*07:02 (setting [1]), 323 nM; with HLA-B*35:01 (setting [1]) it was at least 43900 nM. Moreover, the Kd with HLA-B*51:01 (setting [1]) was at least 25000 nM; with HLA-B*53:01 (setting [1]), 895 nM; with HLA-B*54:01 (setting [1]), 829 nM.

APGSPTNLEF: the Kd is 54.2 nM with HLA-B*07:02 (setting [1]); 850 nM in the assay with HLA-B*35:01 (setting [1]); at least 69600 nM with HLA-B*51:01 (setting [1]); 556 nM in the assay with HLA-B*53:01 (setting [1]); at least 39400 nM with HLA-B*54:01 (setting [1]).

Take APHGVVFLHV: the Kd with HLA-B*07:02 (setting [2]) came to 254 nM; with HLA-B*35:01 (setting [2]) it was 4360 nM; with HLA-B*51:01 (setting [2]), 7810 nM; with HLA-B*53:01 (setting [2]), 749 nM; with HLA-B*54:01 (setting [2]), 288 nM.

In the case of KPNTWCLRCL, the Kd with HLA-B*07:02 (setting [2]) was 339 nM; in the assay with HLA-B*35:01 (setting [2]), at least 69900 nM; with HLA-B*51:01 (setting [2]), at least 69600 nM; in the assay with HLA-B*53:01 (setting [2]), 2440 nM; with HLA-B*54:01 (setting [2]) it was at least 31100 nM.

Consider ATDALMTGY, for which the Kd in the assay with HLA-A*02:01 (setting [3]) worked out at 1450 nM; with HLA-A*02:02 (setting [3]) it was 1580 nM; with HLA-A*02:03 (setting [3]) it was 5920 nM; with HLA-A*02:06 (setting [3]) it was 5650 nM; with HLA-A*03:01 (setting [3]), 3320 nM; in the assay with HLA-A*11:01 (setting [3]), 19.6 nM. In addition, the Kd with HLA-A*31:01 (setting [3]) was at least 72300 nM; in the assay with HLA-A*33:01 (setting [3]), at least 77700 nM; in the assay with HLA-A*68:01 (setting [3]), at least 77700 nM; with HLA-A*68:02 (setting [3]) it was at least 69800 nM; with HLA-B*07:02 (setting [3]) it was at least 32900 nM; with HLA-B*08:01, at least 64700 nM. Besides, the Kd with HLA-B*18:01 is at least 77500 nM; in the assay with HLA-B*35:01 (setting [3]) it was at least 36400 nM; with HLA-B*40:01, at least 76200 nM; with HLA-B*40:02, at least 77300 nM; in the assay with HLA-B*44:02 it was at least 78000 nM; with HLA-B*44:03, at least 78200 nM. Moreover, the Kd with HLA-B*51:01 (setting [3]) is at least 77500 nM; with HLA-B*53:01 (setting [3]), at least 78200 nM; with HLA-B*54:01 (setting [3]), at least 63100 nM.

QPYPQPQPQY: the Kd was at least 69600 nM with HLA-B*07:02 (setting [4]); 48 nM in the assay with HLA-B*35:01 (setting [4]); 10400 nM with HLA-B*51:01 (setting [4]); 1620 nM with HLA-B*53:01 (setting [4]); at least 69900 nM in the assay with HLA-B*54:01 (setting [4]).

Consider KQYIVATLMK, for which the Kd was determined as 11200 nM with HLA-A*02:01 (setting [1]); 10600 nM with HLA-A*02:02 (setting [1]); 9860 nM with HLA-A*02:03 (setting [1]); 11400 nM with HLA-A*02:06 (setting [1]); 5.6 nM with HLA-A*03:01 (setting [1]); 3.78 nM in the assay with HLA-A*11:01 (setting [1]). In addition, the Kd in the assay with HLA-A*31:01 (setting [1]) was 8.24 nM; in the assay with HLA-A*33:01 (setting [1]) it was 1150 nM; in the assay with HLA-A*68:01 (setting [1]), 1340 nM; with HLA-A*68:02 (setting [1]), at least 49000 nM; in the assay with HLA-B*07:02 (setting [1]), at least 69600 nM; with HLA-B*35:01 (setting [1]), 18700 nM. Also, the Kd with HLA-B*51:01 (setting [1]) was at least 35000 nM; in the assay with HLA-B*53:01 (setting [1]), at least 69900 nM; with HLA-B*54:01 (setting [1]) it was 13700 nM.

With LPNTLVFQA, the Kd with HLA-B*07:02 (setting [5]) was at least 38300 nM; with HLA-B*35:01 (setting [5]) it was 82.8 nM; with HLA-B*51:01 (setting [5]), 4400 nM; with HLA-B*53:01 (setting [5]), 1020 nM; in the assay with HLA-B*54:01 (setting [5]), 8.14 nM.

Consider YPTNDIPSLF, for which the Kd was 1970 nM with HLA-B*07:02 (setting [1]); 8.63 nM with HLA-B*35:01 (setting [1]); 4270 nM in the assay with HLA-B*51:01 (setting [1]); 7.67 nM with HLA-B*53:01 (setting [1]); 473 nM in the assay with HLA-B*54:01 (setting [1]).

For the sequence FPGLYGASI, the Kd with HLA-B*07:02 (setting [1]) stood at 80.9 nM; with HLA-B*35:01 (setting [1]), 506 nM; in the assay with HLA-B*51:01 (setting [1]), 137 nM; with HLA-B*53:01 (setting [1]), 9.2 nM; with HLA-B*54:01 (setting [1]), 18.4 nM.

Take ISIIVLFQR: the Kd in the assay with HLA-A*02:01 (setting [1]) was 2400 nM; with HLA-A*02:02 (setting [1]), 6720 nM; with HLA-A*02:03 (setting [1]), 9050 nM; with HLA-A*02:06 (setting [1]), 9070 nM; in the assay with HLA-A*03:01 (setting [1]) it was 689 nM; with HLA-A*11:01 (setting [1]), 930 nM. Besides, the Kd is 1.12 nM in the assay with HLA-A*31:01 (setting [1]); 252 nM with HLA-A*33:01 (setting [1]); 3.26 nM with HLA-A*68:01 (setting [1]); 8930 nM in the assay with HLA-A*68:02 (setting [1]); 2220 nM with HLA-B*07:02 (setting [1]); at least 43400 nM with HLA-B*35:01 (setting [1]). Besides, the equilibrium dissociation constant (Kd) in the assay with HLA-B*51:01 (setting [1]) was at least 21000 nM; in the assay with HLA-B*53:01 (setting [1]), at least 21500 nM; with HLA-B*54:01 (setting [1]), 7680 nM.

As for IPKFKVTGSY, the Kd is 6600 nM with HLA-B*07:02 (setting [1]); 1230 nM with HLA-B*35:01 (setting [1]); at least 69600 nM with HLA-B*51:01 (setting [1]); at least 69900 nM in the assay with HLA-B*53:01 (setting [1]); at least 58200 nM with HLA-B*54:01 (setting [1]).

EPISILDRI: the Kd in the assay with HLA-B*07:02 (setting [1]) is at least 28800 nM; with HLA-B*35:01 (setting [1]), 4810 nM; with HLA-B*51:01 (setting [1]) it was 37.3 nM; with HLA-B*53:01 (setting [1]) it was 194 nM; in the assay with HLA-B*54:01 (setting [1]) it was 820 nM.

Turning to IPPYCTIAPV, the Kd with HLA-B*07:02 (setting [4]) was 940 nM; with HLA-B*35:01 (setting [4]), at least 30400 nM; with HLA-B*51:01 (setting [4]), at least 30000 nM; with HLA-B*53:01 (setting [4]) it was at least 69900 nM; with HLA-B*54:01 (setting [4]), 90.5 nM.

Turning to FPSTQRDYY, the Kd is at least 77500 nM with HLA-B*07:02 (setting [1]); 1.08 nM with HLA-B*35:01 (setting [1]); at least 77500 nM with HLA-B*51:01 (setting [1]); 1.15 nM with HLA-B*53:01 (setting [1]); 3940 nM in the assay with HLA-B*54:01 (setting [1]).

TPNYMKLLVY: the Kd with HLA-B*07:02 (setting [1]) was at least 47800 nM; with HLA-B*35:01 (setting [1]), 48.1 nM; in the assay with HLA-B*51:01 (setting [1]) it was at least 28600 nM; in the assay with HLA-B*53:01 (setting [1]), 952 nM; with HLA-B*54:01 (setting [1]), 14600 nM.
